Ends that are not written are not given here.

One series can be described thus: in vivo. To be noted: Sprague-Dawley, rat, iv, total radioactivity. Also noted: species or system Sprague-Dawley rats. How it is done:
Given this encouraging in vitro result, the tissue distribution of both conjugates in normal Sprague-Dawley rats was examined. […] The radiolabeled compounds were diluted with saline and be injected into rats (n=4 at each time point) via the tail vein. The animal number at each time point was chosen for statistical analysis. […] At the selected post-injection time points, animals were sacrificed, and organs of interest removed, weighed, and counted. The percent injected dose per gram (% ID/g) and percent injected dose per organ (% ID/organ) was calculated by comparison to a weighed, counted standard. Pharmacokinetic parameters were estimated by using either one- or two-compartment model.

The next series concerns the target T1, GLP-1R in pancreas (Mus musculus, UniProt O35659).
T1 sequence (O35659 22-463): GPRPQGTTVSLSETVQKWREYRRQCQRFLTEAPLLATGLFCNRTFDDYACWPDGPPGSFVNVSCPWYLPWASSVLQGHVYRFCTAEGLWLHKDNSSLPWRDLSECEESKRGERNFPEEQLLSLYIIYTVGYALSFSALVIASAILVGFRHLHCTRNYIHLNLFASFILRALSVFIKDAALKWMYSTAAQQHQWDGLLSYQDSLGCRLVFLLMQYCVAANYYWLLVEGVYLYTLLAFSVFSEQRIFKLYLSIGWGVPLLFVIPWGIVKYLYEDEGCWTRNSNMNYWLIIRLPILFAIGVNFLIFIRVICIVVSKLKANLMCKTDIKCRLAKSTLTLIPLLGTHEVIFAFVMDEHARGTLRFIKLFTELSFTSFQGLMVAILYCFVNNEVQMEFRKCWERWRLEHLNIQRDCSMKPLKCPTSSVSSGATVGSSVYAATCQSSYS
Put plainly: Dynamic PET/CT imaging of ^64Cu-labeled peptides in normal mice. Here is the method:
Dynamic PET/CT scans were performed on a Siemens Inveon PET-CT multimodality system using normal male BABL/c mice (n=3 per peptide). Post-PET biodistribution was performed to verify the imaging findings.
In addition, D-Ala^8 was also introduced to prevent the degradation by DPP-IV.
FIG. 9 are graphs that show a comparison of contrast in pancreatic, liver and kidney microPET scans. […] Quantitative analysis based on microPET/CT 0-60 min dynamic scans, animal model: Normal BABL/c mice at 6-8 wks.

Series [1] deals with T2, GLP-1R (Homo sapiens, UniProt P43220). Put plainly: cAMP accumulation in HEK293 cells stably expressing GLP-1R-GFP. Also noted: GFP; expressed in transfected cells; host or cells: HEK293. It counts as cell-based. From the text:
In all cases, reactions were stopped with 1.2 M trichloroacetic acid and cAMP was isolated by the two column chromatographic method.
Target sequence in this assay (P43220 24-463): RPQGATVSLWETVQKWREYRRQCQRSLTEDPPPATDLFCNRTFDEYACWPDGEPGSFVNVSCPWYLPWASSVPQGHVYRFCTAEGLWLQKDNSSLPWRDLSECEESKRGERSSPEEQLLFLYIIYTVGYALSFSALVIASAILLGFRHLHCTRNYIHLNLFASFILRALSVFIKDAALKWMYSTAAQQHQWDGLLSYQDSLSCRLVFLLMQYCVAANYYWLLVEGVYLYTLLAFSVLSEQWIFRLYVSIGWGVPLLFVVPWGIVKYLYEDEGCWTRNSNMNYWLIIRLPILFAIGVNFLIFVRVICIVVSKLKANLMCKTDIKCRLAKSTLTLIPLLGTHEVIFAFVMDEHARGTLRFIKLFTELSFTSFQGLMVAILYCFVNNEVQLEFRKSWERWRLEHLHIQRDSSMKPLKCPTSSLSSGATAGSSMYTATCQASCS
(In general: Changes in cAMP serve as a functional read-out for many G protein-coupled receptors.)

The target of series [2] is T2, GLP-1R. To be noted: DPP-IV degradation fragment; cited from earlier work.
Target sequence in this assay (P43220 24-463, species assumed): as the sequence (P43220 24-463) above
Series [3] concerns freshly isolated rat islets. Put plainly: Displacement binding assay of ^125I-labeled peptide on isolated islets. To be noted: ^125I-labeled (at Tyr^19). The source says:
(§1) This presumably resulted from the degradation of the peptide by DPP-IV since it has Ala at position 8. In order to overcome this problem, we have replaced the L-Ala with a D-Ala. Furthermore, due to high stomach uptake likely resulting from in vivo de-iodination of the ^125I-labeled peptide, a conventional metal chelator. […] The purified conjugates were labeled with either ^64Cu or ^111In in high radiochemical yields.

The nature of series [4]: Tissue distribution of ^125I-labeled peptide in normal Sprague-Dawley rats. It counts as in vivo.
From the text: as §1

In series [5] the target is T2, GLP-1R. The series can be described thus: cAMP formation by radioimmunoassay in transfected HEK293 cells. Further details: expressed in transfected cells; host or cells: HEK293. To be noted: compared with GLP-1. It is filed as cell-based. How it is done: Twelve cyclic GLP-1 analogues containing lactam bridges in various regions (from the N- to C-terminal regions) were designed and synthesized. The cyclic peptides were prepared by following standard solid-phase peptide synthesis protocol with N-Fmoc/^tBu protecting group strategy. The side chains of a lysine and a glutamic acid that would form a lactam bridge were protected with allyl groups which were selectively removed by using Pd^0 catalyst and an allyl scavenger like N,N-dimethylbarbituric acid (29). The released free amine and carboxylic acid were coupled on resin using HBTU or BOP to form a cyclic peptide. […] In addition, cAMP formation by the peptides was determined by radioimmunoassay using the transfected HEK293 cells to examine agonistic activity. […] (SEQ ID No: 5) and […] R (SEQ ID No: 6).
Target sequence in this assay (P43220 24-463): as above

In the case of `CC[C@H](C)[C@H](NC(=O)[C@H](Cc1ccccc1)NC(=O)[C@H](CCC(=O)O)NC(=O)[C@H](CCCCN)NC(=O)[C@H](C)NC(=O)[C@H](C)NC(=O)[C@H](CCC(N)=O)NC(=O)CNC(=O)[C@H](CCC(=O)O)NC(=O)[C@H](CC(C)C)NC(=O)[C@H](Cc1ccc(O)cc1)NC(=O)[C@H](CO)NC(=O)[C@H](CO)NC(=O)[C@@H](NC(=O)[C@H](CC(=O)O)NC(=O)[C@H](CO)NC(=O)[C@@H](NC(=O)[C@H](Cc1ccccc1)NC(=O)[C@@H](NC(=O)CNC(=O)[C@H](CCC(=O)O)NC(=O)[C@@H](C)NC(=O)[C@@H](N)Cc1c[nH]cn1)[C@@H](C)O)[C@@H](C)O)C(C)C)C(=O)N[C@@H](C)C(=O)N[C@@H](Cc1c[nH]c2ccccc12)C(=O)N[C@@H](CC(C)C)C(=O)N[C@H](C(=O)N[C@@H](CCCCN)C(=O)NCC(=O)N[C@@H](CCCNC(=N)N)C(=O)NCCCCCC(=O)N[C@@H](CSC1CC(=O)N(CCNC(=O)CN2CCN(CC(=O)O)CCN(CC(=O)O)CCN(CC(=O)O)CC2)C1=O)C(N)=O)C(C)C` (stereo partly drawn) (64Cu complex, metal not drawn) [D-GLP-1, [D-Ala^8]GLP-1-Ahx-Cys], the tissue uptake at 20 min in the series “in vivo” (% ID/g blood) is 0.91 ± 0.39 %ID/g; in the series “in vivo” (% ID/g fat), 0.44 ± 0.6 %ID/g; in “in vivo” (% ID/g heart) it was 0.64 ± 0.16 %ID/g; in “in vivo” (% ID/g kidney) it was 19.6 ± 0.91 %ID/g; in “in vivo” (% ID/g large int) it was 0.45 ± 0.2 %ID/g; in “in vivo” (% ID/g liver), 2.69 ± 1.16 %ID/g. In addition, the tissue uptake at 20 min in “in vivo” (% ID/g lung) came out at 4.03 ± 1.64 %ID/g; in “in vivo” (% ID/g muscle), 0.3 ± 0.15 %ID/g; in “in vivo” (% ID/g pancreas), 3.58 ± 0.56 %ID/g; in the series “in vivo” (% ID/g small int) it was 1.07 ± 0.73 %ID/g; in the series “in vivo” (% ID/g spleen), 0.22 ± 0.05 %ID/g; in the series “in vivo” (% ID/g stomach), 1.02 ± 0.51 %ID/g. For the same molecule, the tissue uptake at 1 h came to 0.41 ± 0.07 %ID/g in “in vivo” (% ID/g blood); 0.28 ± 0.4 %ID/g in the series “in vivo” (% ID/g fat); 0.46 ± 0.21 %ID/g in the series “in vivo” (% ID/g heart); 28.2 ± 5.83 %ID/g in the series “in vivo” (% ID/g kidney); 0.67 ± 0.7 %ID/g in the series “in vivo” (% ID/g large int); 1.17 ± 0.45 %ID/g in the series “in vivo” (% ID/g liver). The tissue uptake at 1 h stood at 0.91 ± 0.12 %ID/g in the series “in vivo” (% ID/g lung); 0.63 ± 0.05 %ID/g in the series “in vivo” (% ID/g muscle); 2.19 ± 0.98 %ID/g in the series “in vivo” (% ID/g pancreas); 1.02 ± 0.75 %ID/g in “in vivo” (% ID/g small int); 0.23 ± 0.05 %ID/g in “in vivo” (% ID/g spleen); 0.49 ± 0.31 %ID/g in “in vivo” (% ID/g stomach). In addition, the tissue uptake at 4 h in “in vivo” (% ID/g blood) was 0.45 ± 0.02 %ID/g; in “in vivo” (% ID/g fat) it was 0.96 ± 0.88 %ID/g; in “in vivo” (% ID/g heart), 0.15 ± 0.09 %ID/g; in “in vivo” (% ID/g kidney) it was 30.7 ± 9.53 %ID/g; in “in vivo” (% ID/g large int), 0.77 ± 0.18 %ID/g; in “in vivo” (% ID/g liver) it was 1.56 ± 0.14 %ID/g. Also, the tissue uptake at 4 h in “in vivo” (% ID/g lung) stood at 0.77 ± 0.18 %ID/g; in “in vivo” (% ID/g muscle), 0.11 ± 0.13 %ID/g; in the series “in vivo” (% ID/g pancreas) it was 1.18 ± 0.12 %ID/g; in “in vivo” (% ID/g small int), 0.5 ± 0.25 %ID/g; in the series “in vivo” (% ID/g spleen), 0.26 ± 0.2 %ID/g; in the series “in vivo” (% ID/g stomach), 0.23 ± 0.07 %ID/g. The tissue uptake at 24 h in “in vivo” (% ID/g blood) came to 0.14 ± 0.08 %ID/g; in the series “in vivo” (% ID/g fat) it was 0.78 ± 0.14 %ID/g; in the series “in vivo” (% ID/g heart), 0.04 ± 0.05 %ID/g; in “in vivo” (% ID/g kidney) it was 46.1 ± 10.9 %ID/g; in the series “in vivo” (% ID/g large int), 2.01 ± 0.02 %ID/g; in “in vivo” (% ID/g liver) it was 2.26 ± 0.16 %ID/g. Moreover, the tissue uptake at 24 h in “in vivo” (% ID/g lung) is 1.21 ± 0.3 %ID/g; in “in vivo” (% ID/g muscle) it was 0.39 ± 0.29 %ID/g; in “in vivo” (% ID/g pancreas), 0.99 ± 0.05 %ID/g; in “in vivo” (% ID/g small int), 0.91 ± 0.31 %ID/g; in the series “in vivo” (% ID/g spleen), 0.52 ± 0.18 %ID/g; in the series “in vivo” (% ID/g stomach) it was 0.25 ± 0.17 %ID/g. For the same molecule, in the series with GLP-1R in pancreas (mouse, in vivo), the “clearance from the pancreas” value was under 10 min.
Take `CC[C@H](C)[C@H](NC(=O)[C@H](Cc1ccccc1)NC(=O)[C@H](CCC(=O)O)NC(=O)[C@H](CCCCN)NC(=O)[C@H](C)NC(=O)[C@H](C)NC(=O)[C@H](CCC(N)=O)NC(=O)[C@@H]1CCCCNC(=O)CC[C@H](NC(=O)[C@H](CO)NC(=O)[C@@H](NC(=O)[C@H](CC(=O)O)NC(=O)[C@H](CO)NC(=O)[C@@H](NC(=O)[C@H](Cc2ccccc2)NC(=O)[C@@H](NC(=O)CNC(=O)[C@H](CCC(=O)O)NC(=O)[C@@H](C)NC(=O)[C@@H](N)Cc2c[nH]cn2)[C@@H](C)O)[C@@H](C)O)C(C)C)C(=O)N[C@@H](Cc2ccc(O)cc2)C(=O)N[C@@H](CC(C)C)C(=O)N[C@@H](CCC(=O)O)C(=O)N1)C(=O)N[C@H]1CCC(=O)NCCCC[C@@H](C(=O)NCC(=O)N[C@@H](CCCNC(=N)N)C(=O)NCCCCCC(=O)N[C@@H](CSC2CC(=O)N(CCNC(=O)CN3CCN(CC(=O)O)CCN(CC(=O)O)CCN(CC(=O)O)CC3)C2=O)C(N)=O)NC(=O)[C@H](C(C)C)NC(=O)[C@H](CC(C)C)NC(=O)[C@H](Cc2c[nH]c3ccccc23)NC1=O` (stereo partly drawn) [EM2198, HXEGTFTSDVSEYLEKQAAKEFIEWLVKGR, wherein X is D-Ala]: the pancreatic retention on GLP-1R in pancreas (^64Cu labeled, normal mice, dynamic PET-CT) is listed as over 30 min. For the same molecule, the EC50 at GLP-1R [1] is about 1 nM.
On to GLP-1(9-36) amide, for which the “receptor affinity and biological activity” value on GLP-1R [2] was “lost receptor affinity and biological activity nearly completely”.
As to “HAEGTFTSDESSYKEGQAAKEFIAWLVKGR (lactam (positions not given here); ends not checked; also: lactam bridge, positions not given here) [SEQ ID No: 5, cyclic GLP-1 analogue with a lactam bridge]”, the “specific binding to isolated islets” value in series [3] was “appreciable specific binding”. Also, in series [4], the “accumulation in kidneys and stomach” value is “high accumulation in kidneys and stomach”; the pancreas uptake result is reported as “no significant pancreas uptake”. The “receptor activation (cAMP formation)” value in the series with GLP-1R [5] is listed as “comparable or improved”.
With “HAEGTFTSDVSSYLEGQAAKEFIEWLVKG R (chain 1 HAEGTFTSDVSSYLEGQAAKEFIEWLVKGR; chain 2 HAEGTFTSDVSSYLEGQAAKEFIEWLVKGR; lactam (positions not given here); ends not checked; also: lactam bridge, positions not given here) [SEQ ID No: 6, cyclic GLP-1 analogue with a lactam bridge]”, the “receptor activation (cAMP formation)” value with GLP-1R [5] is recorded as “comparable or improved”.

For orientation: tissue uptake means the share of the injected amount in each gram of the tissue. A word on the EC50: it is the concentration at which the effect is half-maximal.

The record behind these values is patent publication US8992886B2, “Cyclic peptide analogues for non-invasive imaging of pancreatic beta-cells” (Board of Regents, the University of Texas System, priority 2009, dated 2015).
